Measurements from the nanobody polyreactivity screen of Harvey et al. (2022).

Experiment: yeast display, Sf9 membrane polyspecificity reagent, FACS + sequencing; frameworks hold sequencing errors
Method in brief: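 Polyreactivity labels are assigned by the sorting gate from which each nanobody was recovered. The gates were low and high (top ~1%), set on anti-HA fluorescence for expression and streptavidin fluorescence for reagent binding. Before sorting, galactose-induced (36–48 hours) yeast display cells were stained for 1 hour at 4 °C with 10% biotinylated, detergent-solubilized Sf9 membrane reagent.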

| Sequence | polyreactivity (PSR sort gate) |
| --- | --- |
| QVQLVESGGGLVQAGGSLRLSCAASGRIFYRNAMGWSRQAPGKERELVASITSAGRTYYADSVKGRFTISRDNAKNTVYLQMNSLKPEDTAVYYCAVRVAVLLNLYGYWGQGTQVTVSS | low polyreactivity |
| QVQLVESGGGLVQAGGSLRLSCAASGRIFYRNAMGWYRQAPGKERELVAAISSGSGTYYADSVKGRFTISRDNAKNTVYLQMNSLKPEDTAVYYCAARARSRDYYWGQGTQVTVSS | high polyreactivity |
| QVQLVESGGGLVQAGGSLRLSCAASGRIFYRNVMGWNRQAPGKERELVAAITYRTGSTYYADSVKGRFTISRDNAKNTVYLQMNSLKPEDTAVYYCNVVPRNGQTWGYEYDYWGQGTQVTVSS | high polyreactivity |
| QVQLVESGGGLVQAGGSLRLSCAASGRIFYRYAMGWYRQAPGKEREFVAAISRSGTTTYYADSVKGRFTISRDNAKNTVYLQMNSLKPEDTAVYYCAVGYRGWDGYWGQGTQVTVSS | high polyreactivity |
| QVQLVESGGGLVQAGGSLRLSCAASGRIFYRYAMGWYRQAPGKERELVAAISGRGGSTYYADSVKGRFTISRDNAKNTVYLQMNSLKPEDTAVYYCNALPVYRSLAYEVDYWGQGTQVTVSS | high polyreactivity |
| QVQLVESGGGLVQAGGSLRLSCAASGRIFYRYAMGWYRQAPGKERELVASITGRGGRTYYADSVKGRFTISRDNAKNSVYLHMNSLKPEDTEVYYCAADWGVHRPPYDSWGQGTQVTVSS | high polyreactivity |
| QVQLVESGGGLVQAGGSLRLSCAASGRIFYRYARGWYRQAPGKEREFVAAISGTGGSTYYADSVKGRFTISRDNAKNTVYLQMNSLKPEDTAVYYCAAFSYYSSGYDYWGQGTQVTVSS | high polyreactivity |
| QVQLVESGGGLVQAGGSLRLSCAASGRIFYRYTMGWYRQAPGKERELVAAITRGGNTYYADSVKGRFTISRDNAKNTVYLQMNSLKPEDTAVYYCAKKAPSDRNNYWGQGTQVTVSS | high polyreactivity |
| QVQLVESGGGLVQAGGSLRLSCAASGRIFYSNAMGWYRQAPGKERELVAASRWSGTRTSYADSVKGRFTISRDNAKNTVYLQMNSLKPEDTAVYYCAAAGWYHSYWGQGTQVTVSS | high polyreactivity |
| QVQLVESGGGLVQAGGSLRLSCAASGRIFYSNAMGWYRQAPGKERELVAGINYRDGSTYYADSVKGRFTISRDNAKKTVYLQMNSLKPEDTAVYYCAKRRQSYPYKTSTWYSHYSWGQGTQVTVSS | high polyreactivity |
| QVQLVESGGGLVQAGGSLRLSCAASGRIFYSNAMGWYRQAPGKERELVATISTGGSTYAESVKGRFTISRDNAKNTVYLQLISLTPEESAVYYCAVDEWRWRVGAVAYYYWGQGTQVTVSS | low polyreactivity |
| QVQLVESGGGLVQAGGSLRLSCAASGRIFYSNAMGWYRQAPGKERELVAVIRRTGSTYYADSVKGRFTISRDNAKNTVYLQMNSLKPEDTAVYYCATRIPYGRGGNRYDYWGQGTQVTVSS | low polyreactivity |
| QVQLVESGGGLVQAGGSLRLSCAASGRIFYSNVMGWYRQAPGKERELVAAIRFSGGGTYYADSVKGRFTITRDNAKNTVYLQMNSLKPEDTAVYYCAAEYYLRVSGRTYVTSHDYWGQGTQVTVSS | high polyreactivity |
| QVQLVESGGGLVQAGGSLRLSCAASGRIFYSNVMGWYRQAPGKERELVAAISGRTGGTYYADSVKGRFTISRDNAKNTVYLQMNSLKPEDTAVYYCNAYSLRHHHSDYWGQGTQVTVSS | low polyreactivity |
| QVQLVESGGGLVQAGGSLRLSCAASGRIFYSYAMGWYIPAPGKERELVAAITVSGGSTFYADSVKGRFTISRDNAKNTVYLQMNSLKPEDTAVYYCAAQSTTIEDGWYVEYNYWGQGTQVTVSS | high polyreactivity |
| QVQLVESGGGLVQAGGSLRLSCAASGRIFYSYAMGWYREAPGKERELVAAIDESDGSTYYADSVKGRFTISRDNAKNTVYLQMNSLKQEDTADYYCNADLTLGGEFDYWGHGTQVTVSS | low polyreactivity |
| QVQLVESGGGLVQAGGSLRLSCAASGRIFYSYAMGWYRQAPGKEREFVAAISRSGARTYYADSVKGRFTISRDNAKNTVYLQMNSLKPEDTAVYYCAADDFSTVEYDYWGQGTQVTVSS | low polyreactivity |
| QVQLVESGGGLVQAGGSLRLSCAASGRIFYSYAMGWYRQAPGKERELVAAIDESDGSPYYADSVKGRFTISRDNAKNTVYLQMNSLKPEDTAVYYCAADSLLVLFDYWGQGTQVTVSS | low polyreactivity |
| QVQLVESGGGLVQAGGSLRLSCAASGRIFYSYAMGWYRQAPGKERELVAAIDESDGSTYYADSVKGRFTISRDNAKNTVYLQMNSLKPEDTAVYYCAAGYLDVLWLLDLLQLYGYWGQGTQVTVSS | low polyreactivity |
| QVQLVESGGGLVQAGGSLRLSCAASGRIFYSYAMGWYRQAPGKERELVAAISWSGGRTYYADSVKGRFTISRDNAKNNVYLQMNSLKPEDTAVYYCARRGYYYDYWGQGTQVTVSS | high polyreactivity |
| QVQLVESGGGLVQAGGSLRLSCAASGRIFYSYAMGWYRQAPGKEWELVAVNTGGGRTYYADSVKGRFTISRDNAKNTVYLQMNSLKPEDTAVYYCAYRYGGTFRYDYWGQGTQVTVSS | high polyreactivity |
| QVQLVESGGGLVQAGGSLRLSCAASGRIFYSYAMGWYRQATGKEREMVASISRSGAITNYADSVKGRFTISRDNAKNPVYLQMNSLIPEDTAVYYCAARLRRVYPPYDYWGQGTQVTVSS | high polyreactivity |

| Sequence | polyreactivity (PSR sort gate) |
| --- | --- |
| QVQLVESGGGLVQAGGSLRLSCAASGRIFYSYARGWYRQAPGKERELVAAIDESDGSTYYADSVKGRFTISRDNAKNTVYLQMNSLKPEDTAVYYCAADSLLVLFDYWGQGTQVTVSS | low polyreactivity |
| QVQLVESGGGLVQAGGSLRLSCAASGRIFYSYVMGWYRQAPGKERELVAAIRWGGGSTYYADSVKGRFTISPDNPKNTVYLQMNSLKPEDTAVYYCAAAYNWRKYDYWGQGTQVTVSS | high polyreactivity |
| QVQLVESGGGLVQAGGSLRLSCAASGRIFYTNAMGWYRQAPGKERELVAAIKWNGGRTYYADSVKGRFTISRDNAKNTVYLQMNSLKPEDTAVYYCAAGAPVDPWYSGLVVLDGMDYWGQGTQVTVSS | low polyreactivity |
| QVQLVESGGGLVQAGGSLRLSCAASGRIFYTNAMGWYRQAPGKERELVAVISWGGDTTYYADSVKGRFTISRDNAKNTVYLQMNSLKPEDTAVYYCNADWGPTYEIYDSWGQGTQVTVSS | low polyreactivity |
| QVQLVESGGGLVQAGGSLRLSCAASGRIFYTNVMGWYRQAPGKERELVAAISTGGGRTYYADSVKGRFTISRDNAKNTVYLQMNSLKPEDTAVYYCAASGRYAIVWGDQYYGYYYWGQGTQVTVSS | high polyreactivity |
| QVQLVESGGGLVQAGGSLRLSCAASGRIFYTYAMGWYRQAPGKERELVAAISSRTGSTYYADSVKGRFTISRDNAKNTVYLQMNSLKPEDTAVYYCNAYRLRYGYDYWGQGTQVTVSS | high polyreactivity |
| QVQLVESGGGLVQAGGSLRLSCAASGRIFYTYAMGWYRQAPGKERELVAVISSGGSTNYADSVKGRFTISRDNAKNTVYLQMNSLKPEDTAVYYCAAYGTKWGRGFYITGYGYWGQGTQVTVSS | low polyreactivity |
| QVQLVESGGGLVQAGGSLRLSCAASGRIFYVNAMAWYRQAPGTEREFVAAIRVDGASTYYADSVKGRFTFSRDNAKNTVYLQMNSLKPEDTAVYYCAARTRSYWSTTYYYWGQGTEVTVSS | high polyreactivity |
| QVQLVESGGGLVQAGGSLRLSCAASGRIFYVNAMGWYRQAPGKERELVAAIDVNDGITYYADSVKGRFTISRDNAKNTVYLQMNSLKPEDTAVYYCAAETLYWNDIIWDVEYWGQGTQVTVSS | high polyreactivity |
| QVQLVESGGGLVQAGGSLRLSCAASGRIFYVNTMGWYRPAPGKERELVATITWGGDSTYYADSVKGRFTISRDNAKNTVYLQMNSLKPEDTAVYYCAADHHDIRLNTRRNDYRGQGTQVTVSS | low polyreactivity |
| QVQLVESGGGLVQAGGSLRLSCAASGRIFYVYAMGWYRAPGKERELVASISYIGGSTYYADSVKGRFTISRDNAKNTVYLQMNSLKPEDTAVYYCATDYYGYTVSYLVPSWPDDYWGQGTQVTVSS | low polyreactivity |
| QVQLVESGGGLVQAGGSLRLSCAASGRIFYVYAMGWYRQAPGKERELVAAISWSGGGTYYADSVKGRFTISRDNAKNTVYLQMNSLKPEDTAVYYCATVSGVPPGSHDYWGQGTQVTVSS | low polyreactivity |
| QVQLVESGGGLVQAGGSLRLSCAASGRIFYVYAMGWYRQAPGKERELVAAITISGGSTYYADSVKGRFTISRDNAKNTVYLQMNSLKPEDTAVYYCAAGTQAHAYVVRPIEMDYWGQGTQVTVSS | low polyreactivity |
| QVQLVESGGGLVQAGGSLRLSCAASGRIFYVYAMGWYRQAPGKERELVATISWSAGITYYADSVKGRFTISRDNAKNTVYLQMNSMKPEDTAVYYCAKVGRYTYSGQYDYWGQGTQVTVSS | high polyreactivity |
| QVQLVESGGGLVQAGGSLRLSCAASGRIFYVYTMGWYRQARGKERELVAAISWSGGSTHYADSVKGRFTISRDNAKNTVYLQMNSLKTEYTAVYYCNKGVVSRVAFEYWGQGTQVTVSS | low polyreactivity |
| QVQLVESGGGLVQAGGSLRLSCAASGRIFYWNAMGWYRQAPGKERELVAGITGGGNTNYADSVKGRFTISRDNAKNTVYLQMNSLKPEDTAVYYCATRTNRRRSYDYWGQGTQVTVSS | high polyreactivity |
| QVQLVESGGGLVQAGGSLRLSCAASGRIFYWYAMGWYRQAPGKERELVATINQSGSSTYYADSVKGRFTISRDNAKNTVYLQMYSLKPEDTAVYYCNAGGQRPHSVGLVGEMGYWGQGTKVTVSS | high polyreactivity |
| QVQLVESGGGLVQAGGSLRLSCAASGRIFYYAMGWYRPAPGKERELVAAISRSGGSTYYADSVKGRFTISRDNAKNTVYLQMNSLKPEDTAVYYCAAVIYIYPISKRDYWGQGTQVTVSS | low polyreactivity |
| QVQLVESGGGLVQAGGSLRLSCAASGRIFYYNAMGGYTQAPGKERELVAAIDWSGGSTYYADSVKGRITISRANAKNTVYLQMNSLKPEDTAVYYCNAPFRYVPPEGSGPYDYWGQGTQVTVSS | low polyreactivity |
| QVQLVESGGGLVQAGGSLRLSCAASGRIFYYNAMGWYRQAPGKEREFVAAISSGGGSTYYADSVKGRFTISRDNAKNTVYLQMNSLKPEDTAVYYCAADGYYYDYYYYWGDYGYWGQGTQVTVSS | high polyreactivity |
| QVQLVESGGGLVQAGGSLRLSCAASGRIFYYNAMGWYRQAPGKERELVAAITRGGSTYYADSVKGRFTISRDNAKNTVYLQMNCLKPVDTAVYYCAADRPGYSRYTTSVKGQRYYYWGQGTQVTVSS | high polyreactivity |
